Drawing on PMC3961330, this text covers binding signal (fold vs vehicle) and binding signal (fold vs vehicle (supershifted complex)) for 1 substance.

Data set [1] deals with PPARalpha (rat liver nuclear extract);RXRalpha (rat liver nuclear extract) (rat;rat). The data set can be described thus: EMSA. The note with it: OEA-treated rats; 10 mM HEPES pH 7.9, 150 mM KCl, 1 mM DTT, 0.2 ug/uL poly(dI-C), 5% glycerol; 15 min on ice then 15 min with probe at room temperature; 8% native PAGE, 0.5x TBE.
Data set [2] shares this test system. The data set can be described thus: EMSA with anti-PPARalpha supershift. The note with it: OEA-treated rats; anti-PPARalpha antibody; 10 mM HEPES pH 7.9, 150 mM KCl, 1 mM DTT, 0.2 ug/uL poly(dI-C), 5% glycerol; 15 min on ice then 15 min with probe at room temperature; 8% native PAGE, 0.5x TBE. A general note: Mobility shift assays separate free from complexed probe on a gel.

In turn, ACOX-PPRE registered a binding signal (fold vs vehicle) in data set [1] of 2. Also, the binding signal (fold vs vehicle (supershifted complex)) in data set [2] was above 3.
